Experimental findings from US20030152571A1 (GlaxoSmithKline, published 2003) are described below.

For experiment [1], the target named is rabbit αvβ3 receptor on rabbit smooth muscle cells (rabbit, UniProt A0A5F9DQF7 1-123). Briefly: cell-based or functional assay.
Experiment [2] has as its target T1, human vitronectin receptor αvβ3 purified from human placenta (human, UniProt P06756 31-1048; P05106 27-788).
T1 construct: mature; Detergent-solubilised native heterodimer; also called αvβ3 receptor; human αvβ3 protein receptor
The experiment in a line: not stated ('depending on the assay employed').

The target of experiment [3] is T1, human vitronectin receptor αvβ3 …. The experiment in a line: BIAcore; immobilized αvβ3, mAb in solution. Background: SPR reads the build-up and loss of mass on a sensor chip optically.
Procedure: (§1) The αᵥβ₃ was immobilized by inserting the αᵥβ₃ into a phospholipid vesicle and producing a hybrid bilayer membrane on a hydrophobic sensor surface. […] Samples of the mAbs were passed over this surface and the rates at which they bound and then dissociated from the surface were measured and analyzed using software provided with the instrument.
In experiment [4] the target is T2, human αvβ3 receptor on cells or in tissue (human, UniProt P06756 31-1048; P05106 27-788).
T2 construct: whole, on cells; also called native cell surface receptor
T2 sequence (P06756 31-1048, chain 1 of 2): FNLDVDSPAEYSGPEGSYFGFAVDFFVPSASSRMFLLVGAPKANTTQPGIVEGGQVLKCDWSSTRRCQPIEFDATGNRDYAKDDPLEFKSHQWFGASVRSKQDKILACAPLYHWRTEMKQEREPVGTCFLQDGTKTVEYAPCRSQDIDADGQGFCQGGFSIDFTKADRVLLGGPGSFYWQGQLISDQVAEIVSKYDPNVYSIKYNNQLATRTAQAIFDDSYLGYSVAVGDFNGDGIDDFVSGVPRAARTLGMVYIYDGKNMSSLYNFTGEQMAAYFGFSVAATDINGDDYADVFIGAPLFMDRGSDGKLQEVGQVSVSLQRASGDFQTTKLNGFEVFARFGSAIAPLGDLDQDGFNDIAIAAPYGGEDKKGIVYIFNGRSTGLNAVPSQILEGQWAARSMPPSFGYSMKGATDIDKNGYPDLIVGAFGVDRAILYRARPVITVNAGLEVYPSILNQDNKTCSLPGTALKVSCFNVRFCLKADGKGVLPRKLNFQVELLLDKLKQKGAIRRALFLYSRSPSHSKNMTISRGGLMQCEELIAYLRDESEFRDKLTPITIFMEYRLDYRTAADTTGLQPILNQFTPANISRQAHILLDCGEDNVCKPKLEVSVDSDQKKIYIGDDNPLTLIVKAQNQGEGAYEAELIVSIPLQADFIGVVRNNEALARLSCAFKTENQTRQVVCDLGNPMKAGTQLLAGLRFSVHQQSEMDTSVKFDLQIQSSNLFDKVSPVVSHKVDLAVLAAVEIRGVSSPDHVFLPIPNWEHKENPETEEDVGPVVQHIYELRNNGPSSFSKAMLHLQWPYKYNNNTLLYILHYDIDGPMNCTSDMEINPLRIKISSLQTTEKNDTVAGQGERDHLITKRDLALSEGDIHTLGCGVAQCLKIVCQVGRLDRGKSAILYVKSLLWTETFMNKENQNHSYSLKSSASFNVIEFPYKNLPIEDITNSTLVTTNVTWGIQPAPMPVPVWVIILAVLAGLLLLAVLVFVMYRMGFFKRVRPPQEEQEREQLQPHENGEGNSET
T2 sequence (P05106 27-788, chain 2 of 2): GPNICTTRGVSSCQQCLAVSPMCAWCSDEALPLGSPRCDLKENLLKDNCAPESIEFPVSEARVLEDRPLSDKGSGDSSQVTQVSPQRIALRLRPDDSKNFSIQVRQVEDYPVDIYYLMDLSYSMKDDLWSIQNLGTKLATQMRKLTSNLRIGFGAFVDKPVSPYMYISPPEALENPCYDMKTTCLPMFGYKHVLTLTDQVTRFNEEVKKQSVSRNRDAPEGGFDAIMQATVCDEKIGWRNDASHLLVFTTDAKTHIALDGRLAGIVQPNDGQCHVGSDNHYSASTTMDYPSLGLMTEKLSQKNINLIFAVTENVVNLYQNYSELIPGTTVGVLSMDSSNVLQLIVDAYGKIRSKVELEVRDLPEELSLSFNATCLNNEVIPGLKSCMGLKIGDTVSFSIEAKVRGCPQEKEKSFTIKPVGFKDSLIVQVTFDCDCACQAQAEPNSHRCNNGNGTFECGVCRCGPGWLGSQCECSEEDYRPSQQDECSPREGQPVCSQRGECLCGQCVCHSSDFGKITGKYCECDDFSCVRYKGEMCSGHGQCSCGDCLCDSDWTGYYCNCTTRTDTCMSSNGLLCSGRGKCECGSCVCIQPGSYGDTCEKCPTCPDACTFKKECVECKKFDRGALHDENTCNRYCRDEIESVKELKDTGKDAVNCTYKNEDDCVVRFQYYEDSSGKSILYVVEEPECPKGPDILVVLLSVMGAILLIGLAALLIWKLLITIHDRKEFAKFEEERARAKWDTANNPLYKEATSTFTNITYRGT
The experiment in a line: method not stated; reference is the rabbit αvβ3 receptor.

Experiment [5] deals with T1, human vitronectin receptor αvβ3 …. The experiment in a line: BIAcore, αvβ3 immobilized in a hybrid bilayer membrane on the sensor surface, mAb in solution.
Procedure: as §1
Experiment [6] has the same target. Briefly: BIAcore; αvβ3 in a hybrid bilayer membrane on the sensor, mAb at 100, 25, 6 nM in triplicate; αvβ3 immobilized in hybrid bilayer membrane on the sensor; mAb at 100, 25, 6 nM in triplicate.
Procedure: as §1
Experiment [7] has as its target T2, human αvβ3 receptor on cells or in …. Briefly: cell-based or functional assay.

T1 sequence (P06756 31-1048, form in doubt, chain 1 of 2): as the sequence (P06756 31-1048, chain 1 of 2) above
T1 sequence (P05106 27-788, form in doubt, chain 2 of 2): as the sequence (P05106 27-788, chain 2 of 2) above
Chain of rabbit αvβ3 receptor on rabbit smooth muscle cells (A0A5F9DQF7 entry or part of it): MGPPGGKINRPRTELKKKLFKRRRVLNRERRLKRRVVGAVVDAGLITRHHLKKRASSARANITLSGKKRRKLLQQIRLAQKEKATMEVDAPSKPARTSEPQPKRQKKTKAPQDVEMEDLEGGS

B1: murine monoclonal antibody D12 (antibody, V domains shown)
VH: EIQLQQSGPEVVKPGASVKVSCKASGYAFTSYNMYWVKQSHGKSLEWIGYIDPYNGDTFYNQKFKGKATLTVDKSSSTAYMHLNSLTSEDSAVFYCARQNYGSFAYWGQGTLVTVSA
VL: DIVLTQSPATLSVTPGDSVSLSCRASQSISNHLHWYQQRSHESPRLLIKYASQSISGIPSRFRGSGSGTDFTLNINILETEDFGMYFCQQSNSWPFTFGSGTNLEIKR
notes: also called mAb D12; murine D12
Turning to B1, the “IC50, rabbit SMC migration (% control)” value in experiment [1] is 18 µg/mL. Moreover, the Kd was 1 to 3 nM in experiment [2], 1.3 nM in experiment [3] and 0.53 nM in experiment [6]. The “fold higher affinity against human αvβ3 than against the rabbit receptor” value in experiment [4] amounted to 10 fold. This molecule returned a koff in experiment [5] of 0.00041 s⁻¹. In experiment [5], this molecule displayed an association rate constant (kon) of 770000 M⁻¹ s⁻¹.

B2: humanized D12 antibody HZ-D12 (IgG1) (antibody, V domains shown)
VH: QVQLVQSGAEVKKPGASVKVSCKASGYAFTSYNMYWVRQAPGQGLEWIGYIDPYNGDTFYNQKFKGKATLTVDKSTSTAYMELSSLRSEDTAVYYCARQNYGSFAYWGQGTLVTVSS
VL: DIVLTQSPGTLSLSPGERATLSCRASQSISNHLHWYQQKPGQAPRLLIKYASQSISGIPSRFSGSGSGTDFTLTISRLEPEDFAVYYCQQSNSWPFTFGQGTKVEIK
notes: also called HuD12; D12HZHC 1-0 / D12HZLC 1-0
Regarding B2, the “IC50 (read off the curve), adhesion of αvβ3-transfected HEK293 cells to vitronectin (O.D. 600nM)” value in experiment [7] was roughly 0.1 µg/mL. Further, in experiment [1], the “IC50, rabbit SMC migration (% control)” value worked out at 42 µg/mL. The molecule also registered a Kd in experiment [3] of 1 nM.

B3: humanized D12 antibody HZ-D12 (IgG4) (antibody, V domains shown)
VH: QVQLVQSGAEVKKPGASVKVSCKASGYAFTSYNMYWVRQAPGQGLEWIGYIDPYNGDTFYNQKFKGKATLTVDKSTSTAYMELSSLRSEDTAVYYCARQNYGSFAYWGQGTLVTVSS
VL: DIVLTQSPGTLSLSPGERATLSCRASQSISNHLHWYQQKPGQAPRLLIKYASQSISGIPSRFSGSGSGTDFTLTISRLEPEDFAVYYCQQSNSWPFTFGQGTKVEIK
In experiment [3], B3 returned a Kd of 1.1 nM.

The term Kd denotes a measure of binding affinity in units of concentration. High values mean a looser complex, low ones a tighter complex. Usually koff stands for the rate constant with which the complex falls apart. A high value points to fast dissociation. By kon is commonly meant the second-order rate constant of association. Read a high kon as fast association.
